# Experimental data published in publication PMC11369174, “Proteome-scale characterisation of motif-based interactome rewiring by disease mutations” (Molecular Systems Biology, 2024).
# B1: O60934 (protein, UniProt O60934 1-754, looked up)
# chain: MWKLLPAAGPAGGEPYRLLTGVEYVVGRKNCAILIENDQSISRNHAVLTANFSVTNLSQTDEIPVLTLKDNSKYGTFVNEEKMQNGFSRTLKSGDGITFGVFGSKFRIEYEPLVACSSCLDVSGKTALNQAILQLGGFTVNNWTEECTHLVMVSVKVTIKTICALICGRPIVKPEYFTEFLKAVESKKQPPQIESFYPPLDEPSIGSKNVDLSGRQERKQIFKGKTFIFLNAKQHKKLSSAVVFGGGEARLITEENEEEHNFFLAPGTCVVDTGITNSQTLIPDCQKKWIQSIMDMLQRQGLRPIPEAEIGLAVIFMTTKNYCDPQGHPSTGLKTTTPGPSLSQGVSVDEKLMPSAPVNTTTYVADTESEQADTWDLSERPKEIKVSKMEQKFRMLSQDAPTVKESCKTSSNNNSMVSNTLAKMRIPNYQLSPTKLPSINKSKDRASQQQQTNSIRNYFQPSTKKRERDEENQEMSSCKSARIETSCSLLEQTQPATPSLWKNKEQHLSENEPVDTNSDNNLFTDTDLKSIVKNSASKSHAAEKLRSNKKREMDDVAIEDEVLEQLFKDTKPELEIDVKVQKQEEDVNVRKRPRMDIETNDTFSDEAVPESSKISQENEIGKKRELKEDSLWSAKEISNNDKLQDDSEMLPKKLLLTEFRSLVIKNSTSRNPSGINDDYGQLKNFKKFKKVTYPGAGKLPHIIGGSDLIAHHARKNTELEEWLRQEMEVQNQHAKEESLADDLFRYNPYLKRRR
# modifications: full-length
# B2: ESPN (protein, UniProt B1AK53 1-854, looked up)
# Espin: MALEQALQAARQGELDVLRSLHAAGLLGPSLRDPLDALPVHHAARAGKLHCLRFLVEEAALPAAARARNGATPAHDASATGHLACLQWLLSQGGCRVQDKDNSGATVLHLAARFGHPEVVNWLLHHGGGDPTAATDMGALPIHYAAAKGDFPSLRLLVEHYPEGVNAQTKNGATPLYLACQEGHLEVTQYLVQECGADPHARAHDGMTPLHAAAQMGHSPVIVWLVSCTDVSLSEQDKDGATAMHFAASRGHTKVLSWLLLHGGEISADLWGGTPLHDAAENGELECCQILVVNGAELDVRDRDGYTAADLSDFNGHSHCTRYLRTVENLSVEHRVLSRDPSAELEAKQPDSGMSSPNTTVSVQPLNFDLSSPTSTLSNYDSCSSSHSSIKGQHPPCGLSSARAADIQSYMDMLNPELGLPRGTIGKPTPPPPPPSFPPPPPPPGTQLPPPPPGYPAPKPPVGPQAADIYMQTKNKLRHVETEALKKELSSCDGHDGLRRQDSSRKPRAFSKQPSTGDYYRQLGRCPGETLAARPGMAHSEEVRARQPARAGCPRLGPAARGSLEGPSAPPQAALLPGNHVPNGCAADPKASRELPPPPPPPPPPLPEAASSPPPAPPLPLESAGPGCGQRRSSSSTGSTKSFNMMSPTGDNSELLAEIKAGKSLKPTPQSKGLTTVFSGIGQPAFQPDSPLPSVSPALSPVRSPTPPAAGFQPLLNGSLVPVPPTTPAPGVQLDVEALIPTHDEQGRPIPEWKRQVMVRKMQLKMQEEEEQRRKEEEEEARLASMPAWRRDLLRKKLEEEREQKRKEEERQKQEELRREKEQSEKLRTLGYDESKLAPWQRQVILKKGDIAKY
# B3: O60832 (protein, UniProt O60832 1-514, looked up)
# chain: MADAEVIILPKKHKKKKERKSLPEEDVAEIQHAEEFLIKPESKVAKLDTSQWPLLLKNFDKLNVRTTHYTPLACGSNPLKREIGDYIRTGFINLDKPSNPSSHEVVAWIRRILRVEKTGHSGTLDPKVTGCLIVCIERATRLVKSQQSAGKEYVGIVRLHNAIEGGTQLSRALETLTGALFQRPPLIAAVKRQLRVRTIYESKMIEYDPERRLGIFWVSCEAGTYIRTLCVHLGLLLGVGGQMQELRRVRSGVMSEKDHMVTMHDVLDAQWLYDNHKDESYLRRVVYPLEKLLTSHKRLVMKDSAVNAICYGAKIMLPGVLRYEDGIEVNQEIVVITTKGEAICMAIALMTTAVISTCDHGIVAKIKRVIMERDTYPRKWGLGPKASQKKLMIKQGLLDKHGKPTDSTPATWKQEYVDYSESAKKEVVAEVVKAPQVVAEAAKTAKRKRESESESDETPPAAPQLIKKEKKKSKKDKKAKAGLESGAEPGDGDSDTTKKKKKKKKAKEVELVSE
# modifications: full-length
# B4: FANCG (protein, UniProt O15287 1-622, looked up)
# Fanconi anemia group G protein: MSRQTTSVGSSCLDLWREKNDRLVRQAKVAQNSGLTLRRQQLAQDALEGLRGLLHSLQGLPAAVPVLPLELTVTCNFIILRASLAQGFTEDQAQDIQRSLERVLETQEQQGPRLEQGLRELWDSVLRASCLLPELLSALHRLVGLQAALWLSADRLGDLALLLETLNGSQSGASKDLLLLLKTWSPPAEELDAPLTLQDAQGLKDVLLTAFAYRQGLQELITGNPDKALSSLHEAASGLCPRPVLVQVYTALGSCHRKMGNPQRALLYLVAALKEGSAWGPPLLEASRLYQQLGDTTAELESLELLVEALNVPCSSKAPQFLIEVELLLPPPDLASPLHCGTQSQTKHILASRCLQTGRAGDAAEHYLDLLALLLDSSEPRFSPPPSPPGPCMPEVFLEAAVALIQAGRAQDALTLCEELLSRTSSLLPKMSRLWEDARKGTKELPYCPLWVSATHLLQGQAWVQLGAQKVAISEFSRCLELLFRATPEEKEQGAAFNCEQGCKSDAALQQLRAAALISRGLEWVASGQDTKALQDFLLSVQMCPGNRDTYFHLLQTLKRLDRRDEATALWWRLEAQTKGSHEDALWSLPLYLESYLSWIRPSDRDAFLEEFRTSLPKSCDL
# Columns and labels:
# KPNA4 ARM = test: GenVar_HD2 ProP-PD phage selection, KPNA4 ARM; assay type: binding, human; details: bait-prey protein level, bait_accession O00629
# ABL1 SH3 = ABL1 SH3 (Homo sapiens, UniProt P00519); test: GenVar_HD2 ProP-PD phage selection, ABL1 SH3; assay type: binding; details: bait domain-prey protein level, bait ABL1_SH3__P00519_60_121
# Chain of ABL1 SH3 (P00519 60-121): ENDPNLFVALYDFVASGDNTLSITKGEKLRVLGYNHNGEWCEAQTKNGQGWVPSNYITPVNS
Molecule,max_promiscuity (KPNA4 ARM),max_specificity (KPNA4 ARM),max_promiscuity (ABL1 SH3),max_specificity (ABL1 SH3)
B1,1,1,–,–
B2,–,–,2,0.8421
B3,3,1,–,–
B4,–,–,5,1
